From paper PMC11850643 (Nature Communications, 2025) come the findings set out here.

The data set concerns the molecule itself. The data set is described as follows: SEC.

B1: full-length MmpL4 (M. tuberculosis) (natural protein)
chain: MSTKFANDSNTNARPEKPFIARMIHAFAVPIILGWLAVCVVVTVFVPSLEAVGQERSVSLSPKDAPSFEAMGRIGMVFKEGDSDSFAMVIIEGNQPLGDAAHKYYDGLVAQLRADKKHVQSVQDLWGDPLTAAGVQSNDGKAAYVQLSLAGNQGTPLANESVEAVRSIVESTPAPPGIKAYVTGPSALAADMHHSGDRSMARITMVTVAVIFIMLLLVYRSIITVVLLLITVGVELTAARGVVAVLGHSGAIGLTTFAVSLLTSLAIAAGTDYGIFIIGRYQEARQAGEDKEAAYYTMYRGTAHVILGSGLTIAGATFCLSFARMPYFQTLGIPCAVGMLVAVAVALTLGPAVLHVGSRFGLFDPKRLLKVRGWRRVGTVVVRWPLPVLVATCAIALVGLLALPGYKTSYNDRDYLPDFIPANQGYAAADRHFSQARMKPEILMIESDHDMRNPADFLVLDKLAKGIFRVPGISRVQAITRPEGTTMDHTSIPFQISMQNAGQLQTIKYQRDRANDMLKQADEMATTIAVLTRMHSLMAEMASTTHRMVGDTEEMKEITEELRDHVADFDDFWRPIRSYFYWEKHCYGIPICWSFRSIFDALDGIDKLSEQIGVLLGDLREMDRLMPQMVAQIPPQIEAMENMRTMILTMHSTMTGIFDQMLEMSDNATAMGKAFDAAKNDDSFYLPPEVFKNKDFQRAMKSFLSSDGHAARFIILHRGDPQSPEGIKSIDAIRTAAEESLKGTPLEDAKIYLAGTAAVFHDISEGAQWDLLIAAISSLCLIFIIMLIITRAFIAAAVIVGTVALSLGASFGLSVLLWQHILAIHLHWLVLAMSVIVLLAVGSDYNLLLVSRFKQEIGAGLKTGIIRSMGGTGKVVTNAGLVFAVTMASMAVSDLRVIGQVGTTIGLGLLFDTLIVRSFMTPSIAALLGRWFWWPLRVRSRPARTPTVPSETQPAGRPLAMSSDRLG
Turning to B1, the binding result was “binds”.
